Assay results published in US20190202925A1 (OPI VI IP HOLDCO, published 2019).
Positions count from the first letter of the chain named.

How the values were obtained:
[1] = target: T1, monomeric human TNFR2 extracellular domain (human, UniProt P20333 23-257); assay: BLI (Octet Red 96), antibody captured on Fc biosensor, monomeric TNFR2 ECD in solution, 1:1 model
T1 construct: extracellular domain; Analyte in the Octet experiments; also called human TNFR2 ECD
T1 sequence (looked up): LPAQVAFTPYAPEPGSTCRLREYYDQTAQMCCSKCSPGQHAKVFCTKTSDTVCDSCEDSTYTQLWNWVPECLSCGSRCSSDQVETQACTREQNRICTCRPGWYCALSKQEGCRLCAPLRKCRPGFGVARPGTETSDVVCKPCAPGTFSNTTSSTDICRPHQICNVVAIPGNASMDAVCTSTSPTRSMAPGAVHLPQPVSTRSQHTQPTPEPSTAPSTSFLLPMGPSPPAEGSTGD
Method: (§1) Analysis of binding to the human and cynomolgus TNFR2 ECD was performed using an Octet Red 96 Instrument™ (ForteBio). […] The experiments were performed using five steps: (1) baseline acquisition (60 s); (2) antibody loading on to anti-human or anti-mouse Fc biosensors (120 s); (3) second baseline acquisition (60 s); (4) association of interacting monomeric human or cynomolgus TNFR2 ECD protein for kₒₙ measurement (120 s); and (5) dissociation of interacting monomeric human or cynomolgus TNFR2 ECD for koff measurement (240-3600 s).
(§2) The interacting monomeric human or cynomolgus ECD was used at 5-6 concentrations of a 3-fold concentration series. The data were analyzed using Octet Data Analysis Software 9.0™ (ForteBio) and fit to the 1:1 binding model. The equilibrium dissociation constants (Kd) were calculated by the ratio of […].

[2] = target: T2, monomeric cynomolgus TNFR2 extracellular domain (cynomolgus monkey, UniProt A0A2K5VET2 132-366); assay: as above
T2 construct: extracellular domain; Analyte in the Octet experiments; also called cynomolgus TNFR2 ECD; Cyno TNFR2
T2 sequence: T1 sequence (looked up) with S16G, S36P, P117Q, N164H, E210A, S216G, M223V
Method: as §1, §2

soluble human TNFR2 [3] = target: T3, soluble human TNFR2 (human, UniProt P20333 23-257); assay: competition ELISA, plate-bound soluble human TNFR2, biotinylated TNFα as competitor
T3 construct: also called soluble TNFR2
T3 sequence (looked up): T1 sequence (looked up)
Method: (§3) Soluble human TNFR2 (Sino Biological, 10417-H08H) or cynomolgus TNFR2 (Sino Biological, 90102-C08H) was coated on Nunc-Immuno™ plates at 0.1 μg/ml, 0.5 ug/ml, 1 μg/ml, and 5 μg/ml. […] Plates were developed using TMB and stopped with 3 M HCl.
IC₅₀ values are reported in nM.

soluble human TNFR2 [4] = target: T3, soluble human TNFR2; assay: competition ELISA: plate-bound soluble human TNFR2, competitor biotinylated TNFα, streptavidin-HRP, A450
Method: as §3

human TNFR2 on cells = target: T4, human TNFR2 on cells (human, UniProt P20333 23-461); assay: flow cytometry on human PBMC, antibody at 10 ug/mL, anti-human Fc-PE secondary
T4 construct: whole, on cells; also called TNFR2 on Jurkat clone H6; human TNFR2 on CD4+ and CD8+ T cells
T4 sequence (looked up): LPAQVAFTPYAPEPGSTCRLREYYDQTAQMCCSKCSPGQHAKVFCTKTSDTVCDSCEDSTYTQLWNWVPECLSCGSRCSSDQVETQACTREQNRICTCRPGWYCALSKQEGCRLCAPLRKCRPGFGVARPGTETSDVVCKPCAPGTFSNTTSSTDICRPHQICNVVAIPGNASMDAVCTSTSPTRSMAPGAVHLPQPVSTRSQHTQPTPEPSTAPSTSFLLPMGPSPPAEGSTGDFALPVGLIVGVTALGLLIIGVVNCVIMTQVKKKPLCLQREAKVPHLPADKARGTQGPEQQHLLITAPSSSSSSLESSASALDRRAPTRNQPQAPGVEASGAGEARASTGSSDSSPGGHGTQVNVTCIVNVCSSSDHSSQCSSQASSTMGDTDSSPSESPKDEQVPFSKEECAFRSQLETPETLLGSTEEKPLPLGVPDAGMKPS
Method: The following day 0.3×10⁶ PBMC were counted and washed with PBS (Lonza). PBMCs were resuspended in Fixable Viability Stain 575V (BD) diluted 1:1,000 in PBS and incubated for 10 minutes. PBMCs were then washed twice in PBS to remove residual viability stain. PBMCs were then resuspended in Horizon Brilliant Stain Buffer (BD) with 10 uL per test of human Fc receptor binding inhibitor (eBioscience) and incubated on ice for 20 minutes to block Fc receptors. […] PBMCs were incubated 20 minutes on ice and then washed three times with 2% FBS PBS. To visualize TNFR chimeric antibody binding, PBMCs were resuspended in goat anti-human Fc-PE F(ab′)₂ secondary reagent (Jackson ImmunoResearch) diluted 1:200 in 2% FBS PBS and incubated on ice for 20 minutes. Cells were then washed three times in 2% FBS PBS and resuspended in 200 uL 2% FBS PBS for flow cytometry analysis using a BD FACS Celesta instrument and FACS Diva software. T cells were analyzed for chimeric TNFR2 binding by gating on viable cells defined as lymphocytes using forward and side scatter and as T cells by anti-CD3 staining. CD4⁺ and CD8⁺ subsets were identified by commercially available specific antibody conjugates.

[5] = target: T5, cynomolgus TNFR2 on cells (cynomolgus); assay: flow cytometry on cynomolgus PBMC, antibody at 10 ug/mL, anti-human Fc-PE secondary
T5 construct: whole, on cells; also called cynomolgus TNFR2 on CD4+ and CD8+ T cells
Method: Cynomolgus peripheral blood mononuclear cells (PBMCs) from two independent donors were isolated by diluting whole blood (SNBL USA) 1:1 in PBS (Lonza), layering over Ficoll-Paque Plus (GE Healthcare), and centrifuging for 35 minutes at 400×g. The PBMC fraction was removed, washed 3 times in 2% FBS PBS and counted. 0.3×10⁶ PBMC were resuspended in Fixable Viability Stain 575V (BD) diluted 1:1000 in PBS and incubated for 10 minutes. PBMC were then washed twice in PBS to remove residual viability stain, resuspended in Horizon Brilliant Stain Buffer (BD) with 10 uL per test of human Fc receptor binding inhibitor (eBioscience), and incubated on ice for 20 minutes to block Fc receptors. […] PBMC were incubated 20 minutes on ice and then washed three times with 2% FBS PBS. To visualize TNFR2 chimeric antibody binding, PBMC were resuspended in goat anti-human Fc-PE F(ab′)₂ secondary reagent (Jackson ImmunoResearch) diluted 1:200 in 2% FBS PBS and incubated on ice for 20 minutes. Cells were then washed three times in 2% FBS PBS and resuspended in 200 uL 2% FBS PBS for flow cytometry analysis using a BD FACS Celesta instrument and FACS Diva software. T cells were analyzed for chimeric TNFR2 binding by gating on viable cells defined as lymphocytes using forward and side scatter and as T cells by anti-CD3 staining. CD4⁺ and CD8⁺ subsets were identified using commercial specific antibody conjugates.

soluble human TNFR2 [6] = target: T3, soluble human TNFR2; assay: competition ELISA: plate-bound soluble human TNFR2, competitor biotinylated TNFα; IC50 relative to unlabelled TNFα = 1.00
Method: as §3

[7] = target: T1, monomeric human TNFR2 extracellular …; assay: BLI (Octet Red 96), Human TNFR2 Kd (1-1)
[8] = target: T1, monomeric human TNFR2 extracellular …; assay: BLI (Octet Red 96), CHO supernatant antibody on anti-human Fc biosensor, 100 nM monomeric human TNFR2 ECD, 1:1 model
Method: Analysis of binding to human TNFR2 ECD was performed using Octet Red 96 instrument (ForteBio). The Octet systems use propriety BLI to analyze biomolecular interaction. CHO supernatants of hSBT-002a, hSBT-002b, hSBT-002c, hSBT-002d, hSBT-002e, and chSBT-002n were diluted to 20 ug/ml based on titers with expression media and immobilized using anti-human Fc biosensors. These were incubated with 100 nM monomeric human TNFR2 in PBS. The experiments comprised of 5 steps: (1) baseline acquisition (60 s); (2) antibodies loading onto anti-human Fc biosensor (120 s); (3) second baseline acquisition (60 s); (4) association of interacting monomeric human TNFR2 ECD protein for kₒₙ measurement (120 s); (5) Dissociation of interacting monomeric human TNFR2 ECD for koff measurement (300 s). Data were analyzed using Octet Data Analysis Software 9.0 (ForteBio) and fitted to the 1:1 binding model. Equilibrium dissociation constants (Kd) were calculated by the ratio of […].

B1: chimeric SBT-001 (antibody, V domains shown)
VH: EVQLQQSGAELVKPGASVKISCKASGYTFTDYNMDWVKQSHGKSLEWIGDINPNYESTSYNQKFKGKATLTVDKSSSTAYMEVRSLTSEDTAVFYCARDKGWYFDVWGAGTTVTVSS
VL: ENVLTQSPAIMSASLGEKVTMSCRASSSVKNMYWYQQKSDASPKLWIYYTSNLAPGVPARFSGSGSGNSYSLTISSMEGEDAATYYCQQFTSSPYTFGGGTKLELK
notes: also called chSBT-001
Kd [1]: 1.8 nM
Kd [2]: 58.3 nM

B2: chimeric SBT-003 (antibody, V domains shown)
VH: QIQLVQSGPELKKPGETVKISCKASGYTFTDYSMHWVKQAPGKGLKWMGWINTETGEPTYADDFKGRFAFSSETSTSTAYLQINNLKNDDTTTYFCATYYGSSYVPDYWGQGTSLTVSS
VL: DIVMTQSHKFMSTSVGDRVSITCKASQNVGTAVAWYQHKPGQSPKLLIYWTSSRHTGVPDRFTGSGSGTEFTLTISNVQSEDLADYFCHQYSDYPYTFGGGTKLEIK
notes: also called chSBT-003
Kd [1]: 0.25 nM
Kd [2]: 470 nM
Average Relative IC50 (soluble human TNFR2 [3]): 5.33 nM
IC50 (soluble human TNFR2 [4]): 14.4 nM
% CD4^+ ab^+ Donor 1 (human TNFR2 on cells): 44.4%
% CD4^+ ab^+ Donor 2 (human TNFR2 on cells): 35%
% CD8^+ ab^+ Donor 1 (human TNFR2 on cells): 23.8%
% CD8^+ ab^+ Donor 2 (human TNFR2 on cells): 17.7%
% CD4^+ ab^+ Donor 1 [5]: 0.7%
% CD4^+ ab^+ Donor 2 [5]: 1.2%
% CD8^+ ab^+ Donor 1 [5]: 0.6%
% CD8^+ ab^+ Donor 2 [5]: 2.1%
Relative IC50 (soluble human TNFR2 [6]): 5.79 nM

B3: chimeric SBT-003 Fc null (antibody, V domains shown)
VH: B2 VH
VL: B2 VL
notes: also called chSBT-003n
Kd [7]: 1 nM

B4: chimeric SBT-002 Fc null (antibody, V domains shown)
VH: QVTLKESGPGILQPSQTLSLTCSFSGFSLSTSGMGVGWIRQPSGKGLEWLAHIWWDDDKFYNPSLKSQLTISKDTSRNQVFLKLTSVVTADTATYYCARLTGTRYFDYWGQGTTLTVSS
VL: DVQMTQSPSSLSASLGGKVTITCKASQDINKFIAWYQHKPGKGPRLLIHYTSTLQPGIPSKFSGSGSGRDYSFSISNLEPEDIATYYCLQYGNLWTFGGGTKLEIT
notes: also called chSBT-002n
Kd [8]: 1.92 nM
koff [8]: 0.000361 s⁻¹
Kd [7]: 2.5 nM

B5: hSBT-002b (antibody, V domains shown)
VH: QVTLKESGPALVKPTQTLTLTCTFSGFSLSTSGMGVGWIRQPPGKALEWLAHIWWDDDKFYNPSLKSQLTISKDTSKNQVVLTMTNMDPVDTATYYCARITGTRYFDYWGQGTTVTVSS
VL: DVQMTQSPSSLSASVGDRVTITCKASQDINKFIAWYQQKPGKAPKLLIHYTSTLQPGIPSRFSGSGSGTDFTFTISSLQPEDIATYYCLQYGNLWTFGGGTKVEIK
notes: Humanized SBT-002; VH fused to human IgG1 Fc null, VL to human Ck; Tested as CHO supernatant
Kd [8]: 2.44 nM
koff [8]: 0.000424 s⁻¹

B6: hSBT-002e (antibody, V domains shown)
VH: B5 VH with Q68R, I100L
VL: B5 VL with T69R, F71Y
notes: as for B5
Kd [8]: 1.54 nM
koff [8]: 0.000268 s⁻¹

B7: hSBT-002d (antibody, V domains shown)
VH: B5 VH
VL: B5 VL with T69R, F71Y
notes: as for B5
Kd [8]: 1.73 nM
koff [8]: 0.000301 s⁻¹

B8: hSBT-002c (antibody, V domains shown)
VH: B5 VH with Q68R, I100L
VL: B5 VL
notes: as for B5
Kd [8]: 2.27 nM
koff [8]: 0.000446 s⁻¹

B9: hSBT-002a (antibody, V domains shown)
VH: B5 VH with Q68R
VL: B5 VL with V2I, H49Y, I58V
notes: as for B5
Kd [8]: 4.89 nM
koff [8]: 0.000722 s⁻¹
